Experimental data published in patent publication US20220332804A1 (CSL INNOVATION, published 2022).

Tests used:
Assay in all cases: SPR, KD relative to WT C2;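 also: biacore SPR at 37 °C, anti-C2 mAbs captured via immobilised goat anti-human IgG, C2 alanine or serine surface mutants as analytes, 1:1 model fitted, double-referenced sensograms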
[1] = molecular target: T1, human C2 I438A (human, UniProt P06681 21-752)
T1 sequence: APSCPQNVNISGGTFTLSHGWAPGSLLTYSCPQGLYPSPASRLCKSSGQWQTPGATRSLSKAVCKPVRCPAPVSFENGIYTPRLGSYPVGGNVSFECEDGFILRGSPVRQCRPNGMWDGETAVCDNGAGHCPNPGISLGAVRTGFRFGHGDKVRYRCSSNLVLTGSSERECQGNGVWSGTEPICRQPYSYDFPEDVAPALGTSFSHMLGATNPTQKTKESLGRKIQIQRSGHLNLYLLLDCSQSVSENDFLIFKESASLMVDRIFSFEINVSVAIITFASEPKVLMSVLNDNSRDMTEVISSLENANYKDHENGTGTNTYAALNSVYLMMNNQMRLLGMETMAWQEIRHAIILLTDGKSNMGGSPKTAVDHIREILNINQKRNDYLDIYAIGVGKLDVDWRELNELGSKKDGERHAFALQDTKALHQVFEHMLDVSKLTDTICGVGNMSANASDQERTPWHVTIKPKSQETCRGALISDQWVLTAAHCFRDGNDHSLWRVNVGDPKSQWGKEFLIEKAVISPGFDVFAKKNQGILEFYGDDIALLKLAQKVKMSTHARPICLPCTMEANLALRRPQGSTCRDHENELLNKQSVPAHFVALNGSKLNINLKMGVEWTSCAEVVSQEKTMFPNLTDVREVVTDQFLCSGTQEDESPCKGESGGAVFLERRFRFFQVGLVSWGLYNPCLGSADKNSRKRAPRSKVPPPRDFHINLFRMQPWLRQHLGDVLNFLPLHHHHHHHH

[2] = molecular target: T2, human C2 L439A (human, UniProt P06681 21-752)
T2 sequence: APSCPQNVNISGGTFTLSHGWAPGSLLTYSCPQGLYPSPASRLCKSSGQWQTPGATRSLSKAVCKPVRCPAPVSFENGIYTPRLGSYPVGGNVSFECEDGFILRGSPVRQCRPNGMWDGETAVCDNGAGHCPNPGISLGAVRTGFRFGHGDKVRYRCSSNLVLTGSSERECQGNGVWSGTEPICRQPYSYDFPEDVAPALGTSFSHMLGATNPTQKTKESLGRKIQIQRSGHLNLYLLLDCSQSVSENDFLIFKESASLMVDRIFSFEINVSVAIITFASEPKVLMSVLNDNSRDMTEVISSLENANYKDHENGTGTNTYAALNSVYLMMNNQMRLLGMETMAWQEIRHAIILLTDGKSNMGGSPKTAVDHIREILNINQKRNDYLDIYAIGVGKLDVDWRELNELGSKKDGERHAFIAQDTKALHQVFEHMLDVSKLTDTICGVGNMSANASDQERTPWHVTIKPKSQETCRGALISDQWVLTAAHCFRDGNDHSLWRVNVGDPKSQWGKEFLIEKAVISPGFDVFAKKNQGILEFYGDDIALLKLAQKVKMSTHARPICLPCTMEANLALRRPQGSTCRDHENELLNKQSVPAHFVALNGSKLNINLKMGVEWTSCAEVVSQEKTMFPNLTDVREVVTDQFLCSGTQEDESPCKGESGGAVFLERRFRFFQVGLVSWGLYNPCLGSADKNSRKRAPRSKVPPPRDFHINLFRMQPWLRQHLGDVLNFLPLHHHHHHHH

[3] = molecular target: T3, human C2 K415A (human, UniProt P06681 21-752)
T3 sequence: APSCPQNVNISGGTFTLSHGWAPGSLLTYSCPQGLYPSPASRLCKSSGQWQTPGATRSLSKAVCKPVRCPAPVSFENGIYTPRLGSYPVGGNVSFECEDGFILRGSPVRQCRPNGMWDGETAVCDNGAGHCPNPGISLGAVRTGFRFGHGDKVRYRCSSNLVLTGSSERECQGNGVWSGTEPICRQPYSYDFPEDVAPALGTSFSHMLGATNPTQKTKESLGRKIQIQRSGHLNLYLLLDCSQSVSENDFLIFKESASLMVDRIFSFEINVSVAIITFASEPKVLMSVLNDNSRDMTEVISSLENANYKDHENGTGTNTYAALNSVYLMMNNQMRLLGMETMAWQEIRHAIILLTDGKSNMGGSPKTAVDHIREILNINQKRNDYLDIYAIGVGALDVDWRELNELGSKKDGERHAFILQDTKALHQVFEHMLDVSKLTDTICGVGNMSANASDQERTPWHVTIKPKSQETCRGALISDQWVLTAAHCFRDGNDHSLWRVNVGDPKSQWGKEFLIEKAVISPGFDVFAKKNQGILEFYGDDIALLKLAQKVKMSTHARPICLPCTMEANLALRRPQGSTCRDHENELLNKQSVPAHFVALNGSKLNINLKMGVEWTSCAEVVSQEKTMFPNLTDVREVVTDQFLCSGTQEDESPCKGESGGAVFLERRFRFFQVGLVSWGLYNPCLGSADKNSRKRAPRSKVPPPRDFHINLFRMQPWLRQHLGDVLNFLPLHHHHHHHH

[4] = molecular target: T4, human C2 S720A (human, UniProt P06681 21-752)
T4 sequence: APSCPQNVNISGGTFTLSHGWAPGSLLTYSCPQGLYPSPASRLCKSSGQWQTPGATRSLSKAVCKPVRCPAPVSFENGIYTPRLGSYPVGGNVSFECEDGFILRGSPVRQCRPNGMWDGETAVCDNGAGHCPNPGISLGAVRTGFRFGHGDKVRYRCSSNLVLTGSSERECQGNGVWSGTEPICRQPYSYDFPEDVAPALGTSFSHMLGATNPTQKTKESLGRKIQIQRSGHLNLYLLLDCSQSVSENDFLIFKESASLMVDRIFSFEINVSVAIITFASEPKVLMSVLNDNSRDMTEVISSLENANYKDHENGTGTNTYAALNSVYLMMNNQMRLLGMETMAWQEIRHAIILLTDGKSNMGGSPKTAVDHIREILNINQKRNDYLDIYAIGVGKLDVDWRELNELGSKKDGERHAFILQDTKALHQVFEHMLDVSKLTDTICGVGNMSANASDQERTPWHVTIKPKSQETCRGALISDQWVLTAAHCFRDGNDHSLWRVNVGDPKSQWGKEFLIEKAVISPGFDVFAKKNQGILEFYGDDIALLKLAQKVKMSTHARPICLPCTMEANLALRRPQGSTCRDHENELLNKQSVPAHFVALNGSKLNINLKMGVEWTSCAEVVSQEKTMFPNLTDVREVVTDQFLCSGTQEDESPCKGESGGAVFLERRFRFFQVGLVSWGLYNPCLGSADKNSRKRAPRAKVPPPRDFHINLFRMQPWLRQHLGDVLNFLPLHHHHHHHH

B1: RF16-226 (antibody, human IgG4 S228P, lambda)
heavy: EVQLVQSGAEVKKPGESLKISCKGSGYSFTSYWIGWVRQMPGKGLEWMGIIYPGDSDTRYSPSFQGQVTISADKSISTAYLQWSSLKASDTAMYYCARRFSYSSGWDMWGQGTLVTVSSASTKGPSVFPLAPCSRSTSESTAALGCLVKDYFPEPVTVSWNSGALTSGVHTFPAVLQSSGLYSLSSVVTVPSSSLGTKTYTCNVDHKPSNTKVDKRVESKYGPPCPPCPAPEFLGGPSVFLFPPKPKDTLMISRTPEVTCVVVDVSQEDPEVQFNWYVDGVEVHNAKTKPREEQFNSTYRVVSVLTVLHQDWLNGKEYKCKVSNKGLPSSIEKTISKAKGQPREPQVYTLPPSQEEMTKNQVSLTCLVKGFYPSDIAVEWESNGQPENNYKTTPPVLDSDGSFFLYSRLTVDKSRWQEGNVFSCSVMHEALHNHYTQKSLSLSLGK
light: SYELTQPPSVSVSPGQTARITCSGDALTSKYVAWYQQKSGLAPLLVIYEDTRRPSGIPAKFSGSSSGSVATLTISGAHGDDEADYYCYSTDASGHQRVFGGGTKLTVLSQPKAAPSVTLFPPSSEELQANKATLVCLISDFYPGAVTVAWKADGSPVKAGVETTKPSKQSNNKYAASSYLSLTPEQWKSHRSYSCQVTHEGSTVEKTVAPTECS
notes: pH-dependent anti-C2 antibody from a phage display library; also called WT
With B1 the Fold diff [1] was 1 fold, the Fold diff [2] was 12 fold and the Fold diff [3] was 1 fold. The Fold diff [4] was 1 fold.
